Reference: patent US20170342148A1 (UNIVERSITE DE NANTES, published 2017)

Tests used:
[1] = biological target: T1, recombinant protein IL-34 (Peprotech Ref 200-34, whole protein without signal peptide with His tag on … (UniProt Q6ZMJ4 21-242)); assay: SPR (BIAcore T100), antibody captured, IL-34 as analyte
T1 construct: mature; also called IL-34 protein; recombinant IL-34; not shown: C-terminal His tag
T1 sequence (looked up): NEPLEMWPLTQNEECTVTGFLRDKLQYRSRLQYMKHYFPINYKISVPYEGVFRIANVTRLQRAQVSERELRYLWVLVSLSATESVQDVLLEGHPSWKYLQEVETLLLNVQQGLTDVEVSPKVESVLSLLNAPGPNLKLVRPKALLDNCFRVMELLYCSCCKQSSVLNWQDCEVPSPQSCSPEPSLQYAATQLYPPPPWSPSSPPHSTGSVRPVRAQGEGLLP
Procedure: (§1) Theses interaction were performed at 25° C., in HBS-P+ buffer (HEPES 10 mM pH 7.4; NaCl 150 mM; P20 0.05%) by administrating different concentrations of IL-34 obtained by serial dilution of the protein IL-34 (Peprotech Ref 200-34, whole protein without signal peptide with His tag on C-terminal).
(§2) The regeneration is performed by administering 10 mM of Glycine-HCl buffer at pH=1.7 allowing dissociating the antibody IL-34 from immobilized polyclonal antibody.

[2] = biological target: T2, M-CSF receptor (R&D-Systems ref: 329-MR) (UniProt P07333 20-512); assay: SPR (BIAcore T100), antibody injected over immobilised M-CSF-R
T2 construct: Bought soluble receptor, immobilised covalently on a CM5 chip; also called CSF-1 receptor; receptor M-CSF-R
T2 sequence (P07333 20-512 limits assumed): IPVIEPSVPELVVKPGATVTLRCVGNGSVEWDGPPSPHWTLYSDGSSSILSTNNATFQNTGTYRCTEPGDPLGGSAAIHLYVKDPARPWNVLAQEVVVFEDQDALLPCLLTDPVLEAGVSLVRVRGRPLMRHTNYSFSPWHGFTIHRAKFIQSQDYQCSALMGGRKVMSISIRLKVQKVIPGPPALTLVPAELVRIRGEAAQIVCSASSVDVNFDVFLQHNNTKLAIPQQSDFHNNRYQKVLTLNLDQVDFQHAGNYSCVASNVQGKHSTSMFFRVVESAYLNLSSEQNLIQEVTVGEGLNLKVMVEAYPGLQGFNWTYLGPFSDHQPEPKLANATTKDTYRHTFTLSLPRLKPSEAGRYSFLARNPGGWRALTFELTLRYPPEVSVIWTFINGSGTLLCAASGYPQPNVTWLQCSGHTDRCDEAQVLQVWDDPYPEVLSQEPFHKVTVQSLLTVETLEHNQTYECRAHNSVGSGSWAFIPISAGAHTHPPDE
Procedure: The measurement of surface plasmon resonance (SPR) was performed on BIACore T100. The microarrays CM5 (CM-dextran, 1-ethyl-3-(3-[…]) carbodiimide hydrochloride (EDC) and N-Hydroxysuccinimide (NHS) have been purchased by GE Healthcare BIAcore and used according to manufacture instructions.
The ligand, M-CSF receptor (R&D-Systems ref: 329-MR) was immobilized covalently on the CM5 microarray surface. Capture level of […] is comprised between 600 and 800 RU.
Theses interaction were performed at 25° C., in HBS-P+ buffer (HEPES 10 mM pH 7.4; NaCl 150 mM; P20 0.05%).

[3] = biological target: T1, recombinant protein IL-34 (Peprotech …); assay: SPR (BIAcore T100), antibody captured on immobilised polyclonal anti-mouse antibody, IL-34 as analyte, 25 °C, 1:1 model
Procedure: as §1, §2
The obtained results are shown by sensograms of FIG. 2.

koff [1]: < 1e-06 s⁻¹ | binding result [2]: no binding (tested: 10 nM) | Kd [3]: 9.4 pM | koff [3]: 2.9e-07 s⁻¹ | kon [3]: 31000 M⁻¹ s⁻¹
B1: murine anti-IL-34 antibody (clone BT34) (antibody, V domains shown)
VH: EVQLQQFGAELVKPGASVKISCKASGYTFTDYNMDWVKQSHGKSLEWIGDINPNYESTTYNQKFKGKATLTVDRSSSTAYMELRSLTSEDTAVYYCLRSGGDYWGQGTTLTVSS
VL: DVLMTQTPLSLPVGLGDQASISCRSSQTIVHSNGKTYLEWYLQKPGQSPKLLIYKVSNRFSGVPDRFSGSGSGTDFTLKISRVEAEDLGVYYCFQGSHVPLTFGAGTKLELK
notes: Murine monoclonal antibody from a hybridoma; No single sentence ties these numbers to BT34; also called anti-IL-34 antibody BT34; anti-IL-34 BT34 clone
